# Measurements reported in patent US20240343761A1, “APELINERGIC MACROCYCLES AND USES THEREOF” (priority 2021, published 2024).
# Read-outs that look alike come from different tables or passages of the source. Numbered stars: 1 amine (or outer) side, 2 acyl side, 3 side chain; on linkers, the order of the positions; unused ones are H or OH. Bridge positions count the residues as written; N and C are the ends. Square brackets hold non-standard residues; d marks the D form. Ends that are not written are not given here. Peptide text beside a SMILES is read from it. * marks the point of attachment. cypTyr(OBn) = 3-cyclopentyl-O-benzyl-L-tyrosine, O=C([C@H](Cc1ccc(OCc2ccccc2)c(C2CCCC2)c1)N[*:1])[*:2]; Hyp(OBn) = O-benzyl-4-hydroxyproline, O=C([C@@H]1C[C@@H](OCc2ccccc2)CN1[*:1])[*:2]; cypY = 3-cyclopentyl-tyrosine, O=C([C@H](Cc1ccc(O[*:3])c(C2CCCC2)c1)N[*:1])[*:2]; Tyr(OBn) = O-benzyl-tyrosine, O=C([C@H](Cc1ccc(OCc2ccccc2)cc1)N[*:1])[*:2]; pent‑4‑enoyl = des-amino allylglycine (Ø = desamino analog), C=CCCC(=O)*; Rx = Nα-allyl-arginine, C=CCN([C@@H](CCCNC(=N)N)C(=O)[*:2])[*:1]; Alnb = Nγ-allyl-Nγ-nosyl-α,γ-diamino-butanoic acid; Oic = O=C(O)[C@@H]1C[C@@H]2CCCC[C@@H]2N1; Phe(4-Br) = N[C@@H](Cc1ccc(Br)cc1)C(=O)O; Benzoyl(4-Br) = O=C(c1ccc(Br)cc1)*; hArg = N=C(N)NCCCC[C@H](N)C(=O)O; dcypTyr(OBn) = not defined here; AllylGly = C=CC[C@H](N)C(=O)O; pGlu = O=C1CC[C@@H](C(=O)O)N1; Nle = CCCC[C@H](N)C(=O)O; AIH = not defined here; B1 = not defined here; B3 = not defined here
# T1: human APJ (hAPJ) (Homo sapiens, UniProt P35414)
# T1 construct: expressed in transfected cells; cell membranes
# T1 sequence (P35414 1-380): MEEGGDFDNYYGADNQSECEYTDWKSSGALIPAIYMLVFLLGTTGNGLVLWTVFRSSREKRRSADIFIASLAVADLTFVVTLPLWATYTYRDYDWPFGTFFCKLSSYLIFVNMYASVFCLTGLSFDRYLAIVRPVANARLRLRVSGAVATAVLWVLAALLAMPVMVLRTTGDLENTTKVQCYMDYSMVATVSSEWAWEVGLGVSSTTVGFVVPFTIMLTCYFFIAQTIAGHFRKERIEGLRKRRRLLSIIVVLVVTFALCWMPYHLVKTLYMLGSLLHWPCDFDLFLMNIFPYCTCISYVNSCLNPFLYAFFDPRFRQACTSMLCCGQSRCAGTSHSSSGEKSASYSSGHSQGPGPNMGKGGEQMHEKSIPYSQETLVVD
# T2: YFP-tagged human APJ receptor (human, UniProt P35414 1-380)
# T2 construct: whole, on cells; also called hAPJ; APJ WT; not shown: YFP tag
# T2 sequence (looked up): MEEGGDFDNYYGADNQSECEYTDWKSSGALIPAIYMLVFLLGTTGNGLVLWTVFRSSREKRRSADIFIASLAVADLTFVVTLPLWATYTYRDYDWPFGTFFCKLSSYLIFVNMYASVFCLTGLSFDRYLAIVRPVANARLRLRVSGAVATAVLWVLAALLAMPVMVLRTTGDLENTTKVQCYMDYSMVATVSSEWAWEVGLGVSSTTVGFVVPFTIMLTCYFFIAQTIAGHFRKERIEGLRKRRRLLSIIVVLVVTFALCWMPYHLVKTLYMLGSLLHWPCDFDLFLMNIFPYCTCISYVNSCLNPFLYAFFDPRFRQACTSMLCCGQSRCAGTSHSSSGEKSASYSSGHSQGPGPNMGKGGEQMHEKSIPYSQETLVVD
# T3: human APJ (transfected HEK293 cells, Gαi1 BRET assay) (human, UniProt P35414 1-380)
# T3 sequence (looked up): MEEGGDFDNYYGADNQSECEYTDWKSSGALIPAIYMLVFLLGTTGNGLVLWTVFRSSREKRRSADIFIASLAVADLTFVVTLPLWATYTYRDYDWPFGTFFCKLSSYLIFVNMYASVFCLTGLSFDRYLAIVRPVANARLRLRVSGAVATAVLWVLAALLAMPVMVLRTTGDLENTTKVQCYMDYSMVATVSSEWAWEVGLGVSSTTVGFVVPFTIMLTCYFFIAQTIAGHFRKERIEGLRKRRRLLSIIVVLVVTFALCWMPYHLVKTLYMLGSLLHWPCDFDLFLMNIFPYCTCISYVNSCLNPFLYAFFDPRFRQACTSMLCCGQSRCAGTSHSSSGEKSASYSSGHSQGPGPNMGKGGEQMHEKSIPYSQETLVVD
# What was measured:
# human APJ (hAPJ) = biological target: T1, human APJ (hAPJ); test: Competitive radioligand binding ([125I][Nle75,Tyr77][Pyr1]-Ape13) on membranes of HEK293 cells stably expressing human APJ; details: Ki binding
# Description: HEK293 cells stably expressing YFP-tagged human APJ were cultured in DMEM medium supplemented with 10% FBS, at 37° C. under a humid atmosphere maintaining 5% CO2. Antibiotic G418 (400 μg/mL) was added to maintain a selection pressure for APJ-expressing cells while penicillin/streptomycin (0.1%) were used to prevent bacterial contamination.
# Binding experiments were performed on cell membranes of HEK293 stably expressing the YFP-tagged human APJ receptor. Cells were frozen at −80° C. for storage and quickly thawed right before the experiments (1 min at 37° C.). […] The precipitate (cell membranes) was suspended in binding buffer (50 mM Tris-HCl, 0.2% BSA, pH 7.4). Binding assays were run in 96-well plates. […] (820 Ci/mmol)^3 and test ligand with a range of concentrations from 10^−1 to 10^−11 M in a total volume of 200 μL for 1 h at room temperature.
# The incubation mixtures were filtered through a glass fiber filter (Millipore, pre-absorbed of PEI 0.5% for 2 h at 4° C.) to remove unbound ligands, and the filter membranes were washed three times with 170 μL cold binding buffer (4° C.). The γ emission was measured using a 1470 Wizard γ-counter from PerkinElmer (Waltham, USA) (80% efficiency).
# [1] = Rat plasma stability (half-life in vitro); type: in vitro ADME; details: male, Sprague-Dawley, rat, plasma, Table I; rat plasma, 37° C., up to 24 h
# Description: Plasma was obtained from male Sprague-Dawley rats by collecting blood in heparin tube and centrifugating at 13,000 rpm to remove blood cells. The isolated plasma was stored at −80° C. and thawed right before the test. In 96-well plate, 6 μL of peptide solution at 1 mM was incubated with 27 μL of plasma at 37° C. in an oven equipped with orbital shaker. Tightly fitted caps were used to seal the wells to avoid water evaporation during incubation. […] A 96-well UPLC plate was put at the bottom to collect the samples. Both plates were centrifuged at 500 g for 10 min at 4° C. to accelerate the filtration. […] The quantity of remaining peptide was plotted into an exponential one-phase decay curve using GraphPad Prism 8 which allowed to calculate peptide half-life. The results were presented as mean±SEM of at least 3 independent experiments, each done in simplicate.
# The percentage of remaining analogue was calculated by doing the ratio between AU of compound and AUC of internal standard. Half-lives were extrapolated from curves.
# [2] = biological target: T2, YFP-tagged human APJ receptor; test: competitive radioligand binding, HEK293-hAPJ membranes
# [3] = biological target: T3, human APJ (transfected HEK293 cells, …); test: cell-based or functional assay
# [4] = biological target: T2, YFP-tagged human APJ receptor; test: competitive radioligand binding, HEK293-hAPJ membranes; remark: listed apart in the source
# [5] = biological target: T3, human APJ (transfected HEK293 cells, …); test: cell-based or functional assay; remark: listed apart in the source
# [6] = biological target: T3, human APJ (transfected HEK293 cells, …); test: cell-based or functional assay; remark: listed apart in the source
# [7] = biological target: T2, YFP-tagged human APJ receptor; test: competitive radioligand binding, HEK293-hAPJ membranes; remark: listed apart in the source
molecule,measurement,setting,value
"CC(C)C[C@@H]1NC(=O)[C@H](CCCNC(=N)N)NC(=O)[C@@H](N)CC=CC[C@@H](C(=O)N[C@@H](CCCCN)C(=O)NCC(=O)N2CCC[C@H]2C(=O)N[C@@H](C)C(=O)O)NC(=O)[C@H](CO)NC1=O [Compound 34, NH2-c[X-R-L-S-X]c-K-G-P-Ala] (H-[AllylGly]RLS[AllylGly]KGPA-OH; staple 1-5)",Ki,human APJ (hAPJ),> 10000 nM
same,half-life at 0.182 mM,[1],48 ± 18 min
[pGlu]RRSKPLHERVPFP (lactam 5-9) [Compound 76 (AM03-40)],Ki,[2],119 nM
[pGlu]RRSEPLHKRV[Oic]FP (lactam 5-9) [Compound 78 (AM03-67)],EC50 Gail,[3],24 nM
same,Ki,[2],173 nM
[pent‑4‑enoyl]RLS[AIH]KGP[Nle]PF (staple 1-5; not fully specified; printed as Ø-c[X-R-L-S-AIH]-K-G-P-Nle-P-F; reading uncertain) [Compound 27 (KT01-111)],Ki,[4],380 nM
H-[AllylGly]RLS[Alnb]KGP[Nle]PF (staple 1-5) [Compound 28 (KT01-135)],Gαi1 Emax (%),[5],106%
KRRE[Nle]PLHSRVPFP (lactam 1-4) [Compound 72 (AM03-37)],EC50 Gail,[3],1.7 nM
same,Ki,[2],0.87 nM
H-[AllylGly]RLS[AllylGly]KGP[Nle]PF (staple 1-5) [Compound 20 (KT01-100)],Gαi1 Emax (%),[5],100%
Ac-KFRRQRPRLEHAKPAPF (lactam 10-13) [Compound 62 (KT02-62)],EC50 Gαi1,[6],33.4 nM
KRRE[Nle]PLHSRV[Oic]FP (lactam 1-4) [Compound 73 (AM03-66)],EC50 Gail,[3],14 nM
same,Ki,[2],11 nM
Ac-KFRRQRPRLEHKKP[Nle]P[B3] (lactam 10-13; reading uncertain; also: B3 structure not given here) [Compound 69 (KT02-20)],Ki,[7],3 nM
Ac-KFRRQRPRLEHKKP[Nle]P[Tyr(OBn)] (lactam 10-13) [Compound 66 (KT03-02)],EC50 Gαi1,[6],21.7 nM
same,Ki,[7],1.6 nM
Ac-KFRRQRPRLEHKKP[Nle]P[B1] (lactam 10-13; reading uncertain) [Compound 67 (KT02-18)],Ki,[7],12 nM
RKPXY (NH2-R-c[K(N-butenyl)-P-X]-Tyr(Obn): K(N-butenyl) 2 and X (allylglycine) 4 close the macrocycle; Tyr(OBn) 5) [Compound 50 (KT01-181)],Ki,[4],7180 nM
[Rx]RLS[AIH]KGP[Nle]PF (staple 1-5; reading uncertain) [Compound 26 (KT01-120)],Ki,[4],382 nM
[pGlu]R[AllylGly]RLS[AllylGly]KGP[Nle]PF (staple 3-7) [Compound 97],Gαi1 Emax (%),[5],101%
[pGlu]R[AllylGly]RLS[Alnb]KGP[Nle]PF (staple 3-7) [Compound 16 (KT01-123)],Gαi1 Emax (%),[5],102%
[pGlu]RRSEPLHKRVPFP (lactam 5-9) [Compound 77 (ABB01-106)],EC50 Gail,[3],6.1 nM
same,Ki,[2],6.2 nM
[pGlu]RRE[Nle]PKHSRVPFP (lactam 4-7) [Compound 75 (ABB01-105)],EC50 Gail,[3],19 nM
same,Ki,[2],59 nM
Ac-KFRRQRPRLEHKKP[Nle]P[dcypTyr(OBn)] (lactam 10-13; reading uncertain; also: printed as Ac-K-F-R-R-Q-R-P-R-L-[E-H-K-K]-P-Nle-P-dcypTyrOBn) [Compound 65 (KT02-99)],EC50 Gαi1,[6],73 nM
same,Ki,[7],4.16 nM
[pGlu][hArg]RSEPLHKRVPFP (lactam 5-9) [Compound 90 (KT03-16)],EC50 Gail,[3],15 nM
[pGlu]R[hArg]SEPLHKRVPFP (lactam 5-9) [Compound 91 (KT03-17)],EC50 Gail,[3],4.3 nM
same,Ki,[2],9.4 nM
H-[AllylGly]RLS[AllylGly]KGP[dY] (staple 1-5) [Compound 45 (KT04-42b)],Gαi1 Emax (%),[5],100%
Guanidine-[AllylGly]RLS[AllylGly]KGP[Nle]PF (staple 1-5) [Compound 23 (KT01-121)],Gαi1 Emax (%),[5],103%
[pGlu]RKRLSDKGP[Nle]PF (lactam 3-7) [Compound 17 (KT01-106)],Ki,[4],39 nM
KRRE[Nle]CLHCRVPFP (lactam 1-4; disulfide 6-9) [Compound 79 (AM03-68)],EC50 Gail,[3],4 nM
same,Ki,[2],0.61 nM
Ac-KFRRQRPRLEHKKP[Nle]P[cypY] (lactam 10-13) [Compound 64 (KT02-78)],EC50 Gαi1,[6],19.4 nM
same,Ki,[7],0.77 nM
Ac-KFRRQRPRLEHKKP[Nle]P[cypTyr(OBn)] (lactam 10-13) [Compound 63 (KT02-76)],EC50 Gαi1,[6],5.47 nM
same,Ki,[7],0.25 nM
[pGlu]RRSEPLHKRVP[Phe(4-Br)]P (lactam 5-9) [Compound 92 (KT03-15)],EC50 Gail,[3],16 nM
[pGlu]RRSEPLHKRVPF[Hyp(OBn)] (lactam 5-9) [Compound 93 (KT03-19)],EC50 Gail,[3],47 nM
[pGlu]RRK[Nle]PEHSRVPFP (lactam 4-7) [Compound 74 (AM03-38)],Ki,[2],261 nM
[Nle]PEHSRKPFP (lactam 3-7) [Compound 84 (ABB01-109)],Ki,[2],274 nM
{Benzoyl(4-Br)}-RRSEPLHKRVP[Phe(4-Br)]P (lactam 4-8) [Compound 94 (KT04-16)],Ki,[2],0.29 nM
Ac-ENTN[8‑aminooctanoic acid]RPRLKHKGP[Nle]PF (lactam 1-10) [Compound 46 (KT01-145)],Ki,[4],32 nM
